Laboratory results published in publication PMC3042988, “The activation mechanism of Irga6, an interferon-inducible GTPase contributing to mouse resistance against Toxoplasma gondii” (BMC Biology, 2011).
Where a chain is given by its changes, count along the chain named. Names and notes keep the numbering of the source.

B1: Irga6 (IIGP1), wild type, recombinant, GST cleaved off (enzyme, mouse)
chain: MGQLFSSPKSDENNDLPSSFTGYFKKFNTGRKIISQEILNLIELRMRKGNIQLTNSAISDALKEIDSSVLNVAVTGETGSGKSSFINTLRGIGNEEEGAAKTGVVEVTMERHPYKHPNIPNVVFWDLPGIGSTNFPPNTYLEKMKFYEYDFFIIISATRFKKNDIDIAKAISMMKKEFYFVRTKVDSDITNEADGKPQTFDKEKVLQDIRLNCVNTFRENGIAEPPIFLLSNKNVCHYDFPVLMDKLISDLPIYKRHNFMVSLPNITDSVIEKKRQFLKQRIWLEGFAADLVNIIPSLTFLLDSDLETLKKSMKFYRTVFGVDETSLQRLARDWEIEVDQVEAMIKSPAVFKPTDEETIQERLSRYIQEFCLANGYLLPKNSFLKEIFYLKYYFLDMVTEDAKTLLKEICL
notes: Irga6 (IIGP1), mouse immunity-related GTPase; also called WT Irga6; source: E. coli BL21, purified (glutathione Sepharose, GST cleaved off with thrombin, Superdex 75); not shown: GST, N-terminal, cleaved
B2: Irga6 with Lys101 mutated to glutamate (enzyme, mouse)
chain: B1 chain with K101E
notes: Irga6 (IIGP1), mouse; mutant made in pGEX-4T-2-Irga6; also called Lys101 mutant; K101E; source: E. coli BL21, purified (glutathione Sepharose, GST cleaved off with thrombin, Superdex 75); not shown: GST, N-terminal, cleaved
B3: Irga6-E106N (enzyme, mouse)
chain: B1 chain with E106N
notes: Irga6 (IIGP1), mouse; mutant made in pGEX-4T-2-Irga6; source: E. coli BL21, purified (glutathione Sepharose, GST cleaved off with thrombin, Superdex 75); not shown: GST, N-terminal, cleaved
B4: Irga6-K176E (enzyme, mouse)
chain: B1 chain with K176E
notes: Irga6 (IIGP1), mouse; mutant made in pGEX-4T-2-Irga6; not shown: GST, N-terminal, cleaved
B5: Irga6-K169E (enzyme, mouse)
chain: B1 chain with K169E
notes: as for B4
B6: Irga6-R210E (enzyme, mouse)
chain: B1 chain with R210E
notes: as for B4
B7: Irga6-D186N (enzyme, mouse)
chain: B1 chain with D186N
notes: Irga6 (IIGP1), mouse; mutant made in pGEX-4T-2-Irga6; also called G4-motif mutant; source: E. coli BL21, purified (glutathione Sepharose, GST cleaved off with thrombin, Superdex 75); not shown: GST, N-terminal, cleaved
B8: Irga6-E106D (enzyme, mouse)
chain: B1 chain with E106D
notes: as for B3
B9: Irga6-E106A (enzyme, mouse)
chain: B1 chain with E106A
notes: as for B3
B10: Irga6-R31E-K32E (enzyme, mouse)
chain: B1 chain with R31E, K32E
notes: Irga6 (IIGP1), mouse; mutant made in pGEX-4T-2-Irga6; also called Arg31, Lys32 mutant; not shown: GST, N-terminal, cleaved
B11: Irga6-K246E (enzyme, mouse)
chain: B1 chain with K246E
notes: as for B4
B12: Irga6-E106Q (enzyme, mouse)
chain: B1 chain with E106Q
notes: as for B3

Molecular target: the molecule itself
Test: light scattering; self-association (oligomerisation) of 80 μM Irga6 with 10 mM GTP at 37°C; B1 buffer (50 mM Tris/HCl pH 7.4, 5 mM MgCl2)/2 mM DTT; conventional light scattering at 350 or 600 nm

Binding result, binds:
B1
B2
B3
B4
B5
B6
B7
B8
B9
B10
B11
B12
